Results reported in article PMC10786891, “Massively parallel profiling of RNA-targeting CRISPR-Cas13d”.

T1: EsCas13d, nuclease-dead (Eubacterium siraeum, UniProt B0MS50, R295A;H300A;R849A;H854A)
T1 sequence: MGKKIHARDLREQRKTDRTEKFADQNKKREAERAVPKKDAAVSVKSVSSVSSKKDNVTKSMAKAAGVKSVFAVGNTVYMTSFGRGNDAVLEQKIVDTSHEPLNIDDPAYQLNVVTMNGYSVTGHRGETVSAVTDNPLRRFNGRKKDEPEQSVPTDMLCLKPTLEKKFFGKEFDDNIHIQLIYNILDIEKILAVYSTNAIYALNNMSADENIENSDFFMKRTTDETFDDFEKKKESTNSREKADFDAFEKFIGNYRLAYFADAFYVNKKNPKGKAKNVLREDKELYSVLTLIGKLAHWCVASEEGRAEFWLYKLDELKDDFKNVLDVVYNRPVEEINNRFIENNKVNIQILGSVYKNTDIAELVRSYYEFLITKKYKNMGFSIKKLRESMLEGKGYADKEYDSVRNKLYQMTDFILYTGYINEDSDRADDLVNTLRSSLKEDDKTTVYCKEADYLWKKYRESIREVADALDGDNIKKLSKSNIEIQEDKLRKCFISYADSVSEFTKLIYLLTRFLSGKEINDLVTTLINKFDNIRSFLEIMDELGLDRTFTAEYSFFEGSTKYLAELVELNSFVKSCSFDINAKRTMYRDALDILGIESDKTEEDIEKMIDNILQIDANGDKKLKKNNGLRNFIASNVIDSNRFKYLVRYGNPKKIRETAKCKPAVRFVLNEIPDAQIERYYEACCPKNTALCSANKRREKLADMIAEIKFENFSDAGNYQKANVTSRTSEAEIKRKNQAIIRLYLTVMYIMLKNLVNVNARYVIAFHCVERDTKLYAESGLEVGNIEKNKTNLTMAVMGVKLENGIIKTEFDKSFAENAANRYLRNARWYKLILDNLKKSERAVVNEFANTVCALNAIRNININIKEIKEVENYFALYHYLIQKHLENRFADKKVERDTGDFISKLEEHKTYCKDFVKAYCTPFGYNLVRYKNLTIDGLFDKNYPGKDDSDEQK

B1: target 1 MT 5'PFS GCG 3'PFS AAA (mixed)
RNA 1: CACCCGUGCAAAAAUGCAGGGGUCUAAAACUGAGCGGAUAACCUCUCUAUGG
RNA 2: GGGAAUGGAUCCACAUCUACGAAUUCGCGCCAUAGAGAGGUUAUCCGCUCAAAAAGAUCGGAAGAGCACACGU
B2: target 1 MT 5'PFS UCA 3'PFS UCC (mixed)
RNA 1: CACCCGUGCAAAAAUGCAGGGGUCUAAAACUGAGCGGAUAACCUCUCUAUGG
RNA 2: GGGAAUGGAUCCACAUCUACGAAUUCUCACCAUAGAGAGGUUAUCCGCUCAUCCAGAUCGGAAGAGCACACGU
B3: target 1 MT 5'PFS CCC 3'PFS UUG (mixed)
RNA 1: CACCCGUGCAAAAAUGCAGGGGUCUAAAACUGAGCGGAUAACCUCUCUAUGG
RNA 2: GGGAAUGGAUCCACAUCUACGAAUUCCCCCCAUAGAGAGGUUAUCCGCUCAUUGAGAUCGGAAGAGCACACGU
B4: target 1 MT 5'PFS CCC 3'PFS UUU (mixed)
RNA 1: CACCCGUGCAAAAAUGCAGGGGUCUAAAACUGAGCGGAUAACCUCUCUAUGG
RNA 2: GGGAAUGGAUCCACAUCUACGAAUUCCCCCCAUAGAGAGGUUAUCCGCUCAUUUAGAUCGGAAGAGCACACGU
B5: target 1 MT 5'PFS GUC 3'PFS CAG (mixed)
RNA 1: CACCCGUGCAAAAAUGCAGGGGUCUAAAACUGAGCGGAUAACCUCUCUAUGG
RNA 2: GGGAAUGGAUCCACAUCUACGAAUUCGUCCCAUAGAGAGGUUAUCCGCUCACAGAGAUCGGAAGAGCACACGU
B6: target 1 MT 5'PFS UCA 3'PFS UCG (mixed)
RNA 1: CACCCGUGCAAAAAUGCAGGGGUCUAAAACUGAGCGGAUAACCUCUCUAUGG
RNA 2: GGGAAUGGAUCCACAUCUACGAAUUCUCACCAUAGAGAGGUUAUCCGCUCAUCGAGAUCGGAAGAGCACACGU
B7: target 1 U11C,G17U (mixed)
RNA 1: CACCCGUGCAAAAAUGCAGGGGUCUAAAACUGAGCGGAUAACCUCUCUAUGG
RNA 2: GGGAAUGGAUCCACAUCUACGAAUUCGUACCAUAUAGAGGCUAUCCGCUCACCGAGAUCGGAAGAGCACACGU
B8: target 1 MT 5'PFS AGA 3'PFS CAA (mixed)
RNA 1: CACCCGUGCAAAAAUGCAGGGGUCUAAAACUGAGCGGAUAACCUCUCUAUGG
RNA 2: GGGAAUGGAUCCACAUCUACGAAUUCAGACCAUAGAGAGGUUAUCCGCUCACAAAGAUCGGAAGAGCACACGU
B9: target 1 MT 5'PFS AGA 3'PFS CAC (mixed)
RNA 1: CACCCGUGCAAAAAUGCAGGGGUCUAAAACUGAGCGGAUAACCUCUCUAUGG
RNA 2: GGGAAUGGAUCCACAUCUACGAAUUCAGACCAUAGAGAGGUUAUCCGCUCACACAGAUCGGAAGAGCACACGU
B10: target 1 MT 5'PFS CCC 3'PFS UUC (mixed)
RNA 1: CACCCGUGCAAAAAUGCAGGGGUCUAAAACUGAGCGGAUAACCUCUCUAUGG
RNA 2: GGGAAUGGAUCCACAUCUACGAAUUCCCCCCAUAGAGAGGUUAUCCGCUCAUUCAGAUCGGAAGAGCACACGU
B11: target 1 MT 5'PFS GUU 3'PFS ACC (mixed)
RNA 1: CACCCGUGCAAAAAUGCAGGGGUCUAAAACUGAGCGGAUAACCUCUCUAUGG
RNA 2: GGGAAUGGAUCCACAUCUACGAAUUCGUUCCAUAGAGAGGUUAUCCGCUCAACCAGAUCGGAAGAGCACACGU
B12: target 1 MT 5'PFS GCG 3'PFS AAG (mixed)
RNA 1: CACCCGUGCAAAAAUGCAGGGGUCUAAAACUGAGCGGAUAACCUCUCUAUGG
RNA 2: GGGAAUGGAUCCACAUCUACGAAUUCGCGCCAUAGAGAGGUUAUCCGCUCAAAGAGAUCGGAAGAGCACACGU
B13: target 1 MT 5'PFS CUG 3'PFS UUG (mixed)
RNA 1: CACCCGUGCAAAAAUGCAGGGGUCUAAAACUGAGCGGAUAACCUCUCUAUGG
RNA 2: GGGAAUGGAUCCACAUCUACGAAUUCCUGCCAUAGAGAGGUUAUCCGCUCAUUGAGAUCGGAAGAGCACACGU

molecular target: T1, EsCas13d, nuclease-dead; experiment: crRNA (strand 1, pre-loaded); Mg2+; 40 mM Tris-HCl pH 7.5, 150 mM NaCl, 6 mM MgCl2, 1 mM DTT, 0.1% Tween-20, 0.2 mg/ml BSA; 25 C; 10 min per concentration, then washed; settings: tags: His6-TwinStrep-SUMO cleaved; N-terminal SNAP kept (SNAP-Surface 488); label: 3' end held by stalled T7 RNA polymerase

Row | Binder | Kd [nM]
1 | B1 | ~37
2 | B2 | 12.5 ± 4.5
3 | B3 | ~11.5
4 | B4 | 9.7 ± 4.5
5 | B5 | ~31.5
6 | B6 | 31.5 ± 14.5
7 | B7 | 65 ± 27
8 | B8 | ~37
9 | B9 | ~110
10 | B10 | ~15
11 | B11 | 17.6 ± 3.3
12 | B12 | 25 ± 7
13 | B13 | 4.45 ± 0.6
